Our source for the dwell time tau, high-FRET state, bleb cortex, shorter average dwell time tau1, high-FRET state, cell cortex and longer average dwell time tau2, high-FRET state, cell cortex values is publication PMC5391180.

The target in this assay is actin filaments of MCF-7 cells, marked by Lifeact-RFP (human (endogenous in MCF-7)) (UniProt P60709). The assay can be described thus: FRET or BRET. Background: BRET reads energy transfer from a luciferase to a nearby fluorophore.

GFP-tagged nonmuscle myosin IIC1 (alternatively spliced isoform of nonmuscle myosin heavy chain IIC) (natural protein), sequence (Q7Z406 2-1995): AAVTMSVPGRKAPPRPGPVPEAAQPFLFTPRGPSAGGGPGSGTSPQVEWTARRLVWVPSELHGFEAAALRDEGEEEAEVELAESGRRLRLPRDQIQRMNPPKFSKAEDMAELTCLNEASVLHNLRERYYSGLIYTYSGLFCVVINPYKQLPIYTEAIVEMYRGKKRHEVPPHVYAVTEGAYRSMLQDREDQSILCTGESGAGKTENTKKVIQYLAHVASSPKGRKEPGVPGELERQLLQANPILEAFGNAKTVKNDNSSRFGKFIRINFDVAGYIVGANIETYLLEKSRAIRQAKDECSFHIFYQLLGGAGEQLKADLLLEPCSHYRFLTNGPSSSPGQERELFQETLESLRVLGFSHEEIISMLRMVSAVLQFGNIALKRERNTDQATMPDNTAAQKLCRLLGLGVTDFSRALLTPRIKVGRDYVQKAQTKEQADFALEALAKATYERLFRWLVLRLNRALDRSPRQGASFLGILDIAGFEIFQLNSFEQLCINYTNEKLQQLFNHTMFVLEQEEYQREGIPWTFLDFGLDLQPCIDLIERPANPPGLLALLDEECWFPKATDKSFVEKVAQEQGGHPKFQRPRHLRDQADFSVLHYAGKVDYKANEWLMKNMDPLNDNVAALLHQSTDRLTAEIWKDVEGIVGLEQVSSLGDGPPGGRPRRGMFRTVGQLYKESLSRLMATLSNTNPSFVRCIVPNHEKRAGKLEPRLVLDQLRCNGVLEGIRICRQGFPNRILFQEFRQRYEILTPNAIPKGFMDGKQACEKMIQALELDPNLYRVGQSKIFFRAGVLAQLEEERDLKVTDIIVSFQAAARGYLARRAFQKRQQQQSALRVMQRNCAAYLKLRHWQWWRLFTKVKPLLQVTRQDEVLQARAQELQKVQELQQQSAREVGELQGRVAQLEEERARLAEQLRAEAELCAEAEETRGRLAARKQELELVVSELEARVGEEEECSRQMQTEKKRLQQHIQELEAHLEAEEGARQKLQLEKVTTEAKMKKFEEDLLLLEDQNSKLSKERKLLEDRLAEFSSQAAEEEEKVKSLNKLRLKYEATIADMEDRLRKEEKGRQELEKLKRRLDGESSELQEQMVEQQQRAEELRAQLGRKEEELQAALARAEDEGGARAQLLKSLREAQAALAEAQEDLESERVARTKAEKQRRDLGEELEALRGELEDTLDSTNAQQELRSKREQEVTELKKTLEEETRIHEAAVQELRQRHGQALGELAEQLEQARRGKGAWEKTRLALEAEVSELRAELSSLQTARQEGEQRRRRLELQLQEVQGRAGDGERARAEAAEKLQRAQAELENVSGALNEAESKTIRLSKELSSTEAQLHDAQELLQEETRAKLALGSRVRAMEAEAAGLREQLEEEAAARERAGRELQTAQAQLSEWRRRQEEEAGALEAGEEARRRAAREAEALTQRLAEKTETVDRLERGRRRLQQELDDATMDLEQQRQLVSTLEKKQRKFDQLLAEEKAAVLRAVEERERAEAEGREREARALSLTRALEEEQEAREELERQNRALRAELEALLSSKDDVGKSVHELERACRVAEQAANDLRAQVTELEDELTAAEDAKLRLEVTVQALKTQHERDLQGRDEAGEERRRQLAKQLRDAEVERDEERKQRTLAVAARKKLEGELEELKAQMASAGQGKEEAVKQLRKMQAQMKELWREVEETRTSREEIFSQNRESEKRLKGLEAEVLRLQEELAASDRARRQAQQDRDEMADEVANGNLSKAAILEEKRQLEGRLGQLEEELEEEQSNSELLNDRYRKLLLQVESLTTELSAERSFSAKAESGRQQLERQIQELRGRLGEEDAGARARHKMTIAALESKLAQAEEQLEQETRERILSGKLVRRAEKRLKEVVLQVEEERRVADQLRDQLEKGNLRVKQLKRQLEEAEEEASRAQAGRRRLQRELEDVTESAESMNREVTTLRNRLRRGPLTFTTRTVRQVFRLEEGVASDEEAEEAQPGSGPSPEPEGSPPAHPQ

Turning to “GFP-tagged nonmuscle myosin IIA (nonmuscle myosin heavy chain IIA, NMHC-IIA) (from UniProt P35579 1-1960) (natural protein)”, the dwell time tau, high-FRET state, bleb cortex is 46 s and the shorter average dwell time tau1, high-FRET state, cell cortex was found to be 33 s.
Consider “GFP-tagged nonmuscle myosin IIB (nonmuscle myosin heavy chain IIB, NMHC-IIB) (from UniProt P35580 1-1976) (natural protein)”, for which the dwell time tau, high-FRET state, bleb cortex was 93 s; the longer average dwell time tau2, high-FRET state, cell cortex is 110 s; the shorter average dwell time tau1, high-FRET state, cell cortex was 35 s.
“GFP-tagged nonmuscle myosin IIC1 (alternatively spliced isoform of nonmuscle myosin heavy chain IIC) (natural protein)” gave a shorter average dwell time tau1, high-FRET state, cell cortex of 35 s.
